Legend:
Experiment in all cases: cell-based or functional assay
[1] = biological target: HIV-1 Env pseudovirus 928-28 (HIV-1)
[2] = biological target: HIV-1 Env pseudovirus 3817.v2.c59 (HIV-1)
[3] = biological target: HIV-1 Env of pseudovirus ZM197M.PB7 (HIV-1)
[4] = biological target: HIV-1 Env pseudovirus CNE8 (HIV-1)
[5] = biological target: HIV-1 Env of pseudovirus Q23.17 (HIV-1)
[6] = biological target: HIV-1 Env of pseudovirus ZM247v1(Rev-) (HIV-1)
[7] = biological target: HIV-1 Env pseudovirus X2131_C1_B5 (HIV-1)
[8] = biological target: HIV-1 Env of pseudovirus 1054_07_TC4_1499 (clade B (T/F)) (HIV-1)
[9] = biological target: HIV-1 Env of pseudovirus CAAN5342.A2 (clade B) (HIV-1)
[10] = biological target: HIV-1 Env of pseudovirus 263-8 (HIV-1)
[11] = biological target: HIV-1 Env of pseudovirus 928-28 (HIV-1)
[12] = biological target: HIV-1 Env of pseudovirus TRO.11 (clade B) (HIV-1)
[13] = biological target: HIV-1 Env of pseudovirus ZM109F.PB4 (clade C) (HIV-1)
[14] = biological target: HIV-1 Env of pseudovirus CNE5 (HIV-1)
[15] = biological target: HIV-1 Env of pseudovirus 3415.v1.c1 (HIV-1)
[16] = biological target: HIV-1 Env of pseudovirus HIV-16055-2.3 (clade C) (HIV-1)
[17] = biological target: HIV-1 Env of pseudovirus 6480.v4.c25 (clade CD) (HIV-1)
[18] = biological target: HIV-1 Env of pseudovirus 89-F1_2_25 (clade CD) (HIV-1)
[19] = biological target: HIV-1 Env of pseudovirus X1632_S2_B10 (clade G) (HIV-1)
[20] = biological target: HIV-1 Env of pseudovirus X2131_C1_B5 (clade G) (HIV-1)
[21] = biological target: HIV-1 Env of pseudovirus 3817.v2.c59 (clade CD) (HIV-1)
[22] = biological target: HIV-1 Env of pseudovirus 231965.c01 (clade D) (HIV-1)
[23] = biological target: HIV-1 Env of pseudovirus P1981_C5_3 (clade G) (HIV-1)
[24] = biological target: HIV-1 Env of pseudovirus 231966.c02 (clade D) (HIV-1)
[25] = biological target: HIV-1 Env of pseudovirus 6545.v4.c1 (clade AC) (HIV-1)
[26] = biological target: HIV-1 Env of pseudovirus 6041.v3.c23 (clade AC) (HIV-1)
[27] = biological target: HIV-1 Env of pseudovirus A07412M1.vrc12 (clade D) (HIV-1)
[28] = biological target: HIV-1 Env of pseudovirus 3016.v5.c45 (clade D) (HIV-1)
[29] = biological target: HIV-1 Env of pseudovirus 0815.v3.c3 (clade ACD) (HIV-1)
[30] = biological target: HIV-1 Env of pseudovirus 6811.v7.c18 (clade CD) (HIV-1)
[31] = biological target: HIV-1 Env of pseudovirus 6540.v4.c1 (clade AC) (HIV-1)
[32] = biological target: HIV-1 Env of pseudovirus 6952.v1.c20 (clade CD) (HIV-1)
[33] = biological target: HIV-1 Env of pseudovirus 3103.v3.c10 (clade ACD) (HIV-1)
[34] = biological target: HIV-1 Env of pseudovirus 3301.v1.c24 (clade AC) (HIV-1)

## N49P19 (antibody)
[1]
  IC50: 2.73 µg/mL
  IC80: 9.63 µg/mL
  MPI: 97
[2]
  IC50: > 50 µg/mL
  IC80: > 50 µg/mL
  MPI: 26
[3]
  IC50: 38.4 µg/mL
  IC80: > 50 µg/mL
  MPI: 56
[4]
  IC50: 0.772 µg/mL
  IC80: 4.84 µg/mL
  MPI: 97
[5]
  IC50: 0.234 µg/mL
  IC80: 1.37 µg/mL
  MPI: 100
[6]
  IC50: > 50 µg/mL
  IC80: > 50 µg/mL
  MPI: 5
[7]
  IC50: 2.52 µg/mL
  IC80: 14.4 µg/mL
  MPI: 91

## N49P9 (antibody)
[1]
  IC50: 0.094 µg/mL
  IC80: 0.339 µg/mL
  MPI: 100
[2]
  IC50: 1.09 µg/mL
  IC80: 5.86 µg/mL
  MPI: 100
[3]
  IC50: 0.083 µg/mL
  IC80: 0.339 µg/mL
  MPI: 100
[4]
  IC50: 0.056 µg/mL
  IC80: 0.26 µg/mL
  MPI: 100
[5]
  IC50: 0.032 µg/mL
  IC80: 0.091 µg/mL
  MPI: 100
[6]
  IC50: 0.622 µg/mL
  IC80: 3.3 µg/mL
  MPI: 100
[7]
  IC50: 0.082 µg/mL
  IC80: 0.274 µg/mL
  MPI: 100

## N49P7.2 (antibody)
[8]
  IC50: 2.04 µg/mL
  IC80: 10.7 µg/mL
  MPI: 99
[9]
  IC50: 0.809 µg/mL
  IC80: 2.81 µg/mL
  MPI: 100
[10]
  IC50: 0.095 µg/mL
  IC80: 0.641 µg/mL
  MPI: 100
[11]
  IC50: 0.347 µg/mL
  IC80: 1.11 µg/mL
  MPI: 100
[12]
  IC50: 0.113 µg/mL
  IC80: 0.306 µg/mL
  MPI: 100
[13]
  IC50: 0.065 µg/mL
  IC80: 0.321 µg/mL
  MPI: 99
[14]
  IC50: 0.206 µg/mL
  IC80: 0.893 µg/mL
  MPI: 100
[15]
  IC50: 0.381 µg/mL
  IC80: 1.58 µg/mL
  MPI: 100
[16]
  IC50: 0.204 µg/mL
  IC80: 0.721 µg/mL
  MPI: 100

## N49P9.1 (antibody)
[1]
  IC50: 0.163 µg/mL
  IC80: 0.695 µg/mL
  MPI: 100
[2]
  IC50: 1.35 µg/mL
  IC80: 8.26 µg/mL
  MPI: 95
[3]
  IC50: 0.049 µg/mL
  IC80: 0.283 µg/mL
  MPI: 100
[4]
  IC50: 0.228 µg/mL
  IC80: 0.921 µg/mL
  MPI: 100
[5]
  IC50: 0.029 µg/mL
  IC80: 0.106 µg/mL
  MPI: 100
[6]
  IC50: 1.88 µg/mL
  IC80: 17.8 µg/mL
  MPI: 87
[7]
  IC50: 0.143 µg/mL
  IC80: 0.476 µg/mL
  MPI: 100

## N49P18.1 (antibody)
[8]
  IC50: > 50 µg/mL
  IC80: > 50 µg/mL
  MPI: 0
[9]
  IC50: 16.1 µg/mL
  IC80: 49.1 µg/mL
  MPI: 83
[10]
  IC50: 3.96 µg/mL
  IC80: 41 µg/mL
  MPI: 90
[11]
  IC50: 22.7 µg/mL
  IC80: > 50 µg/mL
  MPI: 71
[12]
  IC50: 4.25 µg/mL
  IC80: 11.7 µg/mL
  MPI: 99
[13]
  IC50: 26.6 µg/mL
  IC80: > 50 µg/mL
  MPI: 69
[14]
  IC50: 19.5 µg/mL
  IC80: > 50 µg/mL
  MPI: 72
[15]
  IC50: > 50 µg/mL
  IC80: > 50 µg/mL
  MPI: 48
[16]
  IC50: 8.04 µg/mL
  IC80: 22.6 µg/mL
  MPI: 97

## N49P7.1 (antibody)
[17]
  IC50, neutralization titer in TZM.bl cells: 0.056 µg/mL
  IC80, neutralization titer in TZM.bl cells: 0.192 µg/mL
  MPI, neutralization in TZM.bl cells: 100
[10]
  neutralization IC50: 0.104 µg/mL
  neutralization IC80: 0.392 µg/mL
  neutralization MPI: 100
[18]
  IC50, neutralization titer in TZM.bl cells: 41.6 µg/mL
  IC80, neutralization titer in TZM.bl cells: > 50 µg/mL
  MPI, neutralization in TZM.bl cells: 58
[11]
  neutralization IC50: 0.23 µg/mL
  neutralization IC80: 0.775 µg/mL
  neutralization MPI: 100
[19]
  IC50, neutralization titer in TZM.bl cells: 17.9 µg/mL
  IC80, neutralization titer in TZM.bl cells: > 50 µg/mL
  MPI, neutralization in TZM.bl cells: 65
[20]
  IC50, neutralization titer in TZM.bl cells: 0.129 µg/mL
  IC80, neutralization titer in TZM.bl cells: 0.431 µg/mL
  MPI, neutralization in TZM.bl cells: 100
[15]
  neutralization IC50: 0.191 µg/mL
  neutralization IC80: 0.647 µg/mL
  neutralization MPI: 100
[21]
  IC50, neutralization titer in TZM.bl cells: 1.48 µg/mL
  IC80, neutralization titer in TZM.bl cells: 8.36 µg/mL
  MPI, neutralization in TZM.bl cells: 97
[22]
  IC50, neutralization titer in TZM.bl cells: 0.106 µg/mL
  IC80, neutralization titer in TZM.bl cells: 0.364 µg/mL
  MPI, neutralization in TZM.bl cells: 100
[3]
  neutralization IC50: 0.144 µg/mL
  neutralization IC80: 0.539 µg/mL
  neutralization MPI: 100
[23]
  IC50, neutralization titer in TZM.bl cells: 0.216 µg/mL
  IC80, neutralization titer in TZM.bl cells: 0.494 µg/mL
  MPI, neutralization in TZM.bl cells: 100
[5]
  neutralization IC50: 0.077 µg/mL
  neutralization IC80: 0.208 µg/mL
  neutralization MPI: 100
[24]
  IC50, neutralization titer in TZM.bl cells: 0.203 µg/mL
  IC80, neutralization titer in TZM.bl cells: 0.705 µg/mL
  MPI, neutralization in TZM.bl cells: 100
[25]
  IC50, neutralization titer in TZM.bl cells: 1.15 µg/mL
  IC80, neutralization titer in TZM.bl cells: 16 µg/mL
  MPI, neutralization in TZM.bl cells: 92
[26]
  IC50, neutralization titer in TZM.bl cells: 0.078 µg/mL
  IC80, neutralization titer in TZM.bl cells: 0.366 µg/mL
  MPI, neutralization in TZM.bl cells: 100
[27]
  IC50, neutralization titer in TZM.bl cells: 0.232 µg/mL
  IC80, neutralization titer in TZM.bl cells: 1.07 µg/mL
  MPI, neutralization in TZM.bl cells: 100
[28]
  IC50, neutralization titer in TZM.bl cells: 0.559 µg/mL
  IC80, neutralization titer in TZM.bl cells: 2.54 µg/mL
  MPI, neutralization in TZM.bl cells: 100
[29]
  IC50, neutralization titer in TZM.bl cells: 0.023 µg/mL
  IC80, neutralization titer in TZM.bl cells: 0.064 µg/mL
  MPI, neutralization in TZM.bl cells: 100
[30]
  IC50, neutralization titer in TZM.bl cells: 0.321 µg/mL
  IC80, neutralization titer in TZM.bl cells: 1.46 µg/mL
  MPI, neutralization in TZM.bl cells: 100
[6]
  neutralization IC50: 0.038 µg/mL
  neutralization IC80: 0.176 µg/mL
  neutralization MPI: 100
[31]
  IC50, neutralization titer in TZM.bl cells: 14.7 µg/mL
  IC80, neutralization titer in TZM.bl cells: > 50 µg/mL
  MPI, neutralization in TZM.bl cells: 75
[32]
  IC50, neutralization titer in TZM.bl cells: 26.3 µg/mL
  IC80, neutralization titer in TZM.bl cells: > 50 µg/mL
  MPI, neutralization in TZM.bl cells: 71
[33]
  IC50, neutralization titer in TZM.bl cells: 0.229 µg/mL
  IC80, neutralization titer in TZM.bl cells: 0.772 µg/mL
  MPI, neutralization in TZM.bl cells: 100
[34]
  IC50, neutralization titer in TZM.bl cells: 0.041 µg/mL
  IC80, neutralization titer in TZM.bl cells: 0.111 µg/mL
  MPI, neutralization in TZM.bl cells: 100

## N49P11 (antibody)
[8]
  IC50: 2.92 µg/mL
  IC80: 13.1 µg/mL
  MPI: 100
[9]
  IC50: 9.03 µg/mL
  IC80: 20.8 µg/mL
  MPI: 100
[10]
  IC50: 0.064 µg/mL
  IC80: 0.259 µg/mL
  MPI: 100
[11]
  IC50: 5.46 µg/mL
  IC80: 25 µg/mL
  MPI: 100
[12]
  IC50: 0.179 µg/mL
  IC80: 0.937 µg/mL
  MPI: 100
[13]
  IC50: 5.2 µg/mL
  IC80: 19.4 µg/mL
  MPI: 100
[15]
  IC50: 1.86 µg/mL
  IC80: 10.3 µg/mL
  MPI: 100
[16]
  IC50: 0.091 µg/mL
  IC80: 0.503 µg/mL
  MPI: 100

Reference: patent US20230002480A1
